The target of test [1] is YFP-BmOrco (Bombyx mori). Nature of the test: FRET or BRET; intermolecular BRET in living HEK293 cells after bombykal for 5 min (dose response or ΔBRET); Rluc-BmOR3 with YFP-BmOrco, or Rluc-BmOrco with YFP-BmOR3; pretreatment with 100 ng/ml pertussis toxin without significant effect.
The target of test [2] is YFP-BmOrco (Bombyx mori). As to the kind of experiment: FRET or BRET; saturation BRET in living HEK293 cells, no agonist; fixed Rluc donor, increasing YFP acceptor plasmid; coelenterazine h 5 μM; Lyn-YFP as negative control. Background: In BRET a luciferase serves as donor, and the signal depends on an acceptor being close.

As to Rluc-BmOR3 (receptor), the EC50 of bombykal for the BRET increase with YFP-BmOrco (Bombyx mori) [1] is 36 nM. In addition, the BRET50 (receptor expression ratio) (receptor expression ratio) with YFP-BmOrco (Bombyx mori) [2] stood at 1.

The record behind these values is paper PMC8477192, “An ionic lock and a hydrophobic zipper mediate the coupling between an insect pheromone receptor BmOR3 and downstream effectors” (The Journal of Biological Chemistry, 2021).
